Source: patent US5753621A, “Pulmonary surfactant protein fragments” (Abbott Laboratories, priority 1995, dated 1998)
No end group written: not given here. *: point of attachment. Acm = CC(=O)NC*

What was measured:
Format in all cases: physicochemical
[1] = Dynamic surface tension versus compressed surface area, modified Wilhelmy Surface Balance (Langmuir Trough); settings: peptide 0.5 mg/ml (~2% of solids) in DPPC:PG:PA 68:22:9; 675 ug phospholipid on 445 sq. cm trough; recorded during seven complete cycles
Method: (§1) Prior to testing for surface activity, the synthetic fragments were admixed with lipids. A lipid mixture consisting of 68% 1,2-dipalmitoyl-sn-phosphatidylcholine (DPPC), 22% egg phosphatidylglycerol (PG) and 9% palmitic acid on a weight basis was prepared by dissolving the lipids in chloroform:methanol (2:1). The required amount of peptide fragment was dissolved in methanol and heated to 60° C. for 10 minutes. The peptide solution was then added to the lipid mixture prewarmed to 45° C. for ten minutes. The samples were mixed at 45° C. by gentle swirling at 100 revolutions per minute on a Buchi rotary evaporator. The organic solvents were then evaporated at 45° C. by increasing the vacuum in 100 torr increments every five minutes until most of the solvent was removed. Final vacuum was between 150-200 torr. Following evaporation, the solids were then suspended in 10% ethanol prewarmed to 45° C. and which was prepared using deionized distilled water. The suspension was gently mixed with vortexing and placed back under vacuum at 600 torr with a repeat of the vacuum ramping process. Final vacuum for the ethanol removal was 50 torr. Following complete removal of ethanol the suspension was diluted with aqueous 0.15M NaCl at 45° C. to yield an admixture with a phospholipid concentration of 25 mg/ml. The peptide/lipid admixtures were formed at final peptide concentrations of 0.5 mg/ml (equivalent to 2% of solids concentration).
The dynamic surface tension lowering properties of the peptide/lipid admixtures were studied using a modified Wilhelmy Surface Balance (Langmuir Trough). The instrument consists of an all Teflon trough and movable Teflon ribbon (dam) barrier system which completely contains and defines a variable surface area. Surface area was varied through the use of a constant rate reversible 3-phase motor to drive the Teflon barrier. A Cahn 2000 electrobalance (Cahn Instruments, Cerittos, Calif.) with a sandblasted 1 cm platinum plate and stainless steel hangdown wire was employed to determine the surface tension at the liquid-air interface. The entire apparatus was situated in a thermostated incubator set at 45° C. Surface area-surface tension measurements were made by adding 950 ml of 0.15M NaCl to the trough. Subphase temperature was controlled during the measurements at 36°-38° C.
For each experiment 27 ul of peptide/lipid admixture was applied in a random array of 13 droplets to the surface of the temperature controlled subphase and allowed to spread spontaneously for 3 minutes. (The 27 ul application corresponds to 675 ug of phospholipid). The trough surface area was then cycled from a maximum (445 sq. cm) to a minimum (178 sq. cm) surface area and back to maximum at a cycling rate of 3 cycles/min (compression ratio 2.5:1). The dynamic surface tension versus surface area was recorded for 7 complete compression-expansion cycles for each application.

[2] = Pulsating Bubble Surfactometer (PBS) surface tension; settings: after 5 minutes pulsation (100 cycles); 1 mg/ml phospholipid, peptide 2% of phospholipids; 0.15M NaCl; 37° C.; 20 cycles/minute; SD in parenthesis
Method: as §1
The PBS equipment (Electronetics, Buffalo, N.Y.) used was essentially equivalent to that described in detail by G. Enhorning, J. Appld. Physiol. 43, 198-203, (1977). Recordings were made of the pressure gradient across the wall of a small air bubble, communicating with ambient air by means of a narrow chimney stack, but otherwise entirely surrounded by a 40 ul volume of the peptide/lipid admixture. The admixture concentration employed for these studies was 1 mg/ml total phospholipid (0.02 mg/ml total peptide) and the diluent was 0.15M NaCl.
Immediately prior to loading the sample chamber, the diluted samples were sonicated for 15 seconds to remove any gas nuclei.
The pressure drop across the air-water interface was measured during pulsation by a pressure transducer, and the corresponding surface tension was determined at minimum and maximum bubble size through the application of Young's law and the Laplace equation. Measurements were all made at 37° C. and the bubble pulsed at 20 cycles/minute to render respectively a maximum (1.1 mm) and a minimum (0.8 mm) bubble diameter. (This compression/expansion corresponds to a 50% change in the surface area of the air-water interface).

[3] = Relative surface activity by dilution studies on the modified Wilhelmy Balance-Langmuir Trough; settings: for Mean Minimum Surface Tension, relative peptide concentration 1/2: 1/2 dilution of equimolar stock with lipid mixture; for Mean Minimum Surface Tension, relative peptide concentration 1/2 / Mean Minimum Surface Tension, relative peptide concentration 1/4 / Mean Minimum Surface Tension, relative peptide concentration 1/8 / Mean Minimum Surface Tension, relative peptide concentration 1/16 / Mean Minimum Surface Tension, relative peptide concentration Equimolar / Mean Minimum Surface Tension, relative peptide concentration 2%: 675 ug phospholipid; for Mean Minimum Surface Tension, relative peptide concentration 1/4: 1/4 dilution of equimolar stock with lipid mixture; for Mean Minimum Surface Tension, relative peptide concentration 1/8: 1/8 dilution of equimolar stock with lipid mixture; for Mean Minimum Surface Tension, relative peptide concentration 1/16: 1/16 dilution of equimolar stock with lipid mixture; for Mean Minimum Surface Tension, relative peptide concentration Equimolar: equimolar to 0.5 mg/mL SP-B(53-78); for Mean Minimum Surface Tension, relative peptide concentration Equimolar / Mean Minimum Surface Tension, relative peptide concentration 2%: 445 sq. cm trough; for Mean Minimum Surface Tension, relative peptide concentration 2%: peptide 2% of solids (0.5 mg/ml); for surface activity (in words): summary of Tables 3, 4 and 5
Method: For the purpose of this comparison "surface activity" is defined as follows: For any given peptide concentration, the admixture is required to result in a minimum dynamic surface tension of less than 10 dynes/cm for each of seven consecutive expansion/compression cycles.
Initially each of the admixtures was formulated so as to contain an equal number of moles of the individual peptide as is contained in a 0.5 mg/mL admixture of SP-B(53-78). […] Thereafter, each of these admixtures was diluted with the standard lipid mixture as described in Example 4, so as to provide doubling dilutions of the equimolar "parent" stock peptide admixture. The lipid concentration in all cases was maintained at 25 mg/ml.
Assessment of relative surface activity was conducted on the modified Wilhemy-Langmuir Surface Balance. For these studies a standard volume of 27 ul of each admixture, corresponding to a total phospholipid mass of 675 ug, was applied to the Langmuir Trough with maximum dimensions of 445 sq. cm.

[4] = Adsorption capacity, modified Wilhelmy surface balance; settings: measured after three (3) minutes spreading time; peptide 0.5 mg/ml (~2% of solids)
Method: as §1
A procedure similar to that described by Notter, et al., Pediatric Res. 16, 515-519 (1982) was employed to determine the absorption rate in the absence of diffusion resistance. The modified Wilhelmy surface balance as described above was used. However, instead of using a Langmuir trough, a round Teflon dish (5.1 cm diameter) was employed. The subphase, 70 ml of 0.15M NaCl, was allowed to equilibrate to 37° C. in the incubator and was continuously stirred with a Teflon coated magnetic stirrer. An aliquot of the peptide/lipid fragment admixture containing 5 mg of total phospholipid was dispersed in 10 ml of 0.15M NaCl by vortexing for 10 seconds. This dispersion was then added to the saline subphase. Surface tension lowering was monitored using a strip chart recorder connected to the electro-balance output.

Substance	Surface Tension Maximum [1] [dynes/cm]	Surface Tension Minimum [1] [dynes/cm]	Surface tension Maximum (maximum bubble size) [2]	Surface tension Minimum (minimum bubble size) [2]	Mean Minimum Surface Tension, relative peptide concentration 1/2 [3] [mN/m]	Mean Minimum Surface Tension, relative peptide concentration 1/4 [3] [mN/m]	Mean Minimum Surface Tension, relative peptide concentration 1/8 [3] [mN/m]	Mean Minimum Surface Tension, relative peptide concentration 1/16 [3] [mN/m]	Mean Minimum Surface Tension, relative peptide concentration Equimolar [3] [mN/m]	Mean Minimum Surface Tension, relative peptide concentration 2% [3] [mN/m]	Adsorption (equilibrium adsorption surface tension) [4] [dynes/cm]	surface activity (in words) [3]
SP-B(53-78): replica of the 26 residue carboxyl terminal region of native human SP-B (YSVILLDTLLGRMLPQLVCRLVLRCS; Pulmonary surfactant-associated protein B; UniProt P07988 253-278, looked up, fragment)	50.4	1.1	56.7 (2.9) dyne/cm	1.5 (0.6) dyne/cm	0.6	0.5	2.0	14.5	0.7	0.1	47.0	–
SP-B(53-78)diAcm: SP-B positions 53-78, cysteines 71 and 77 capped with S-acetamidomethyl (Acm) groups (YSVILLDTLLGRMLPQLVC(Acm)RLVLRC(Acm)S; UniProt P07988 253-278, looked up, fragment)	49.5	0.1	54.1 (2.6) dyne/cm	4.1 (3.1) dyne/cm	–	–	–	–	–	0.1	47.0	unusual surface activity
SP-B(58-78)diAla: SP-B positions 58-78, cysteines 71 and 77 replaced by alanine (LDTLLGRMLPQLVARLVLRAS; Pulmonary surfactant-associated protein B; UniProt P07988 258-278, looked up, variant C71A C77A)	57.0	0.2	52.0 (3.3) dyne/cm	7.5 (1.2) dyne/cm	0.3	1.5	4.7	24.1	0.0	0.2	39.7	unusual surface activity
SP-B(66-78): synthesized SP-B peptide fragment, positions 66-78, 13 amino acids (LPQLVCRLVLRCS; not fully specified; cysteine pairing not given here; UniProt P07988 266-278, looked up, fragment)	50.7	0.7	61.5 (5.4) dyne/cm	9.4 (1.4) dyne/cm	2.8	6.7	14.9	22.0	0.6	0.7	47.5	–
